Laboratory results reported in the supplement of paper PMC10567573.

B1: ANKRD40 (parent)
chain: SLRENDFIEIELDRQELTYQELLR

Variants of: B1
Test: protein stability index of a GFP-peptide fusion (GPS, HEK-293T) (PSI 1-6); higher = more stable
Conditions: c terminus: a fixed tail appended
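Note: lentivirally expressed fusions sorted by FACS into six bins by GFP to DsRed ratio, PSI derived from sequencing read proportions per bin multiplied by bin number.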

Protein stability index, by site and new letter:
Q15: F 2.09, I 1.89, Y 2, G 3.68, A 2.63, V 2.44, C 2.62, T 2.91, H 2.75, P 2.78, M 2.25, R 3.41, W 2.37, K 3.29, L 2.78, D 3.59, S 3.17, N 3.35, E 3.28
E21: C 1.94, M 1.92, A 2.44, L 1.69, I 1.9, G 2.67, H 2.76, N 2.83, F 1.69, D 2.85, Q 3.34, K 2.67, P 2.36
D6: W 2.31, V 1.64, C 2.28, Q 2.76, N 2.99, H 2.57, I 1.28, P 2.97, K 2.64, A 2.42, Y 1.9, F 2.12, S 2.55, M 1.66, R 3.14, L 2.15, E 2.97, T 2.34, G 2.82
R14: C 2.09, N 3.54, W 1.79, M 1.85, H 2.97, Y 1.95, K 3.31, F 1.44, D 3.85, A 2.87, S 3.06, P 2.86, G 3, Q 3.41, V 2.06, E 3.37, T 3.01, L 1.73, I 2.86
E11: A 3.15, H 2.68, T 2.35, Q 2.74, N 3.33, L 1.94, Y 2.16, G 3.26, W 1.98, M 2.41, F 2.28, R 2.44, D 3.59, P 3.75, C 2.37, I 2.16, S 2.45, K 2.45, V 2.29
Q20: G 3.15, C 2.16, F 1.99, H 2.76, E 3.58, M 2.3, R 2.3, L 2.04, V 2.62, S 3.3, T 2.97, W 2.25, I 1.83, K 3.2, A 2.72, Y 2.29, N 2.65, P 2.95, D 3.7
L12: E 4.41, A 3.92, V 3.54, G 4.4, R 4.14, K 3.91, W 2.8, Q 4.13, I 2.69, T 3.88, D 4.51, Y 3.34, S 4.18, P 3.72, N 4.17, M 2.67, C 3.88, H 3.82, F 2.73
T18: Q 3.37, G 3.53, Y 2.59, M 2.12, S 3.55, W 2.73, I 2.1, F 1.85, P 3.28, N 3.5, R 3.29, L 2.49, V 2.22, E 3.49, K 2.93, C 2.46, H 3.2, D 3.71, A 3.06
I8: P 3.89, K 4.02, H 3.99, A 3.83, N 4.1, W 3.26, D 4.56, V 3.62, G 3.88, F 2.56, M 4.11, C 3.57, S 3.34, Q 4.23, L 3.77, Y 3.28, E 4.46, R 3.89, T 4.23
I10: V 3.32, L 3.16, N 3.75, Y 3.33, S 3.68, G 3.55, P 4.24, D 4.12, C 3.69, W 3.19, K 3.48, Q 4.26, F 3.41, H 4.34, E 4.63, M 3.62, T 4.06, A 4.02, R 3.53
E9: C 2.17, Q 2.51, R 1.97, I 1.63, P 3.59, N 2.82, W 1.57, F 1.82, T 2, L 2.14, D 3.47, S 2.73, A 2.58, M 2.14, G 3.33, V 1.87, K 2.4, Y 2.12, H 2.27
N5: H 2.62, P 3.34, G 3.03, C 2.48, D 2.82, I 2.33, M 2.4, Q 2.96, E 2.78, W 1.72, L 2.14, S 2.77, Y 2.75, K 2.88, A 2.57, R 2.79, F 2.2, T 3.09, V 2.4
F7: Y 3.54, L 3.79, S 4.03, V 3.59, W 3.03, E 4.46, T 3.99, M 3.33, K 4.2, P 4.05, R 3.69, I 2.91, D 4.24, A 4.21, G 4.18, Q 4.17, N 4.05, C 3.87, H 3.96
E4: S 3.21, G 2.57, T 2.7, W 2.19, M 2.55, R 2.31, I 2.02, H 2.84, F 2.41, K 2.16, Q 2.97, Y 2.17, D 3.25, L 2.05, V 1.83, N 2.92, P 3.21
D13: Y 1.87, Q 2.93, G 2.77, I 1.77, W 1.81, F 1.99, L 2.04, R 2.65, V 1.78, S 2.54, M 2.45, A 2.56, T 2.15, K 2.55, H 2.22, P 2.77, E 2.82, N 3.17, C 2.35
E16: N 3.5, G 2.91, H 2.89, M 2.6, V 2.48, Y 2.15, P 3.42, A 2.8, K 2.93, I 2.47, F 2.5, C 2.46, Q 3.18, L 2.99, D 3.24, R 3.04, T 2.76, S 3.48, W 2.55
Y19: F 2.31, I 2.73, H 3.71, M 3.22, E 4.6, V 3.38, C 2.93, D 4.59, L 3.12, P 4.43, Q 4.47, R 4.13, W 2.61, A 4.12, S 3.79, K 3.99, T 3.5, G 3.86, N 4.22
L17: I 3.19, H 3.59, E 3.37, C 3.12, W 3.1, Y 3.28, K 3.61, R 3.25, A 3.11, N 3.54, T 3.35, F 2.61, M 2.92, Q 3.57, G 3.3, P 2.74, S 3.41, V 2.9, D 3.71
